Non-standard residues stand in square brackets, D forms with d. No end group written: not given here. pT = C[C@@H](OP(=O)(O)O)[C@H](N)C(=O)O A value given as a limit tells only on which side of the number the result lay.

In the first experiment the target is T1, HLA-A*02:01 (human).
T1 construct: MHC monomer first loaded with a UV-sensitive peptide, which is cleaved by UV and exchanged with the test peptide; captured on streptavidin plates; also called peptide-receptive MHC molecules
The experiment in a line: UV-ligand exchange + anti-b2m ELISA; ++ = peptide exchange yield >20%. An excerpt:
(§1) Candidate peptides for T cell based therapies according to the present invention were further tested for their MHC binding capacity (affinity). The individual peptide-MHC complexes were produced by UV-ligand exchange, where a UV-sensitive peptide is cleaved upon UV-irradiation, and exchanged with the peptide of interest as analyzed. Only peptide candidates that can effectively bind and stabilize the peptide-receptive MHC molecules prevent dissociation of the MHC complexes. To determine the yield of the exchange reaction, an ELISA was performed based on the detection of the light chain (β2m) of stabilized MHC complexes. The assay was performed as generally described in Rodenko et al. (Rodenko et al., 2006).
(§2) 96 well MAXISorp plates (NUNC) were coated over night with 2 ug/ml streptavidin in PBS at room temperature, washed 4× and blocked forth at 37° C. in 2% BSA containing blocking buffer. Refolded HLA-A*02:01/MLA-001 monomers served as standards, covering the range of 15-500 ng/ml. Peptide-MHC monomers of the UV-exchange reaction were diluted 100 fold in blocking buffer. Samples were incubated for 1 h at 37° C., washed four times, incubated with 2 ug/ml HRP conjugated anti-β2m for 1 h at 37° C., washed again and detected with TMB solution that is stopped with […]. Absorption was measured at 450 nm. Candidate peptides that show a high exchange yield (preferably higher than 50%, most preferred higher than 75%) are generally preferred for a generation and production of antibodies or fragments thereof, and/or T cell receptors or fragments thereof, as they show sufficient avidity to the MHC molecules and prevent dissociation of the MHC complexes.
Turning to IIDSSPTAL (gene: ATAD5), the peptide exchange yield lay within 20 to 50%.

For LLSEDFVSV (gene: SPATA20), the peptide exchange yield is 20 to 50%.

Regarding KLAEISLGV (gene: DSG3), the peptide exchange yield lay within 20 to 50%.

For L[pT]LAKLEKV (gene: C9orf156) [LULAKLEKV], the peptide exchange yield lay in the range of 20 to 50%.

The next experiment has as its target T1, HLA-A*02:01. The experiment in a line: UV-ligand exchange + anti-b2m ELISA; ++++ = peptide exchange yield >75%.
Source text: as §1, §2
(ELISA stands for enzyme-linked immunosorbent assay.)
SLSDVRVIV (gene: RALGAPA2): the peptide exchange yield is over 75%.

With KVFGGFQVV (gene: HES1), the peptide exchange yield is over 75%.

On to SLVDARFQL (gene: OSR1), for which the peptide exchange yield is over 75%.

As for RLLELLQEA (gene: PROM2), the peptide exchange yield is over 75%.

On to GLIDSLMAYV (gene: PKP1), for which the peptide exchange yield was over 75%.

For FLDDGNQMLL (gene: DYNC2H1), the peptide exchange yield was over 75%.

Turning to GLALLYSGV (gene: ATP6V0B), the peptide exchange yield is over 75%.

On to WLSTSIPEA (gene: FASN), for which the peptide exchange yield was over 75%.

With TLGVIPESV (gene: USP48), the peptide exchange yield was over 75%.

Regarding SLLGGITVV (gene: SPAG9), the peptide exchange yield is over 75%.

For the molecule FLTPPLLSV (gene: AP2A1), the peptide exchange yield was over 75%.

As to YLDEIPPKFSM (gene: TACSTD2), the peptide exchange yield was over 75%.

Take SLFDGIATGL (gene: DNMT3A): the peptide exchange yield was over 75%.

As for SLDVVNLLV (gene: ANKRD50), the peptide exchange yield is over 75%.

YLIGQHVTA (gene: FBXO21): the peptide exchange yield was over 75%.

For GLYSGEVLV (gene: WDR34), the peptide exchange yield is over 75%.

For the molecule SIAAYNPVV (gene: DHRS2), the peptide exchange yield was over 75%.

On to VILDKYYFL (gene: TMPRSS4), for which the peptide exchange yield is over 75%.

On to YTLSKTEFL (gene: S100A11), for which the peptide exchange yield was over 75%.

As to VLKVFLENV, the peptide exchange yield is over 75%.

Turning to YLPDSLTQL (gene: LRRC1), the peptide exchange yield is over 75%.

In the case of IQDPVIFYV (gene: GPR126), the peptide exchange yield is over 75%.

Regarding FLIESKLLSL (gene: DRC1), the peptide exchange yield was over 75%.

As for IITDLLRSV (gene: FUBP1), the peptide exchange yield was over 75%.

With FIPDFAVAI (gene: COL6A3), the peptide exchange yield is over 75%.

On to GLAHFVNEI (gene: ZMYM2), for which the peptide exchange yield was over 75%.

Turning to YLARIQGFQV (gene: STAU2), the peptide exchange yield was over 75%.

These data come from patent publication US20170253633A1 (IMMATICS BIOTECHNOLOGIES, published 2017).
